From publication PMC4144707 (Biochemistry, 2014) come the findings set out here.

Where no end group is shown, it is not given here.

The data set concerns the molecule itself. Kind of data set: deuterium MAS solid-state NMR.

In the case of RRAGSVYAGILSYGVGFFLFILVVAAVTLCRLRSPPKKGLG-NH2 (also: (5,5,5-d3) leucine at 385 or 388) [FGFR3 TM–JM (WT) peptide, FGFR3 (369–407) with two N-terminal arginines], the binding result is “binds”.

For RRAGSVYAGILSYGVGFFLFILVVEAVTLCRLRSPPKKGLG-NH2 (also: (5,5,5-d3) leucine at 385 or 388) [FGFR3 TM–JM (A391E) peptide, FGFR3 (369–407) with two N-terminal arginines], the binding result is listed as “binds”.
